Assay: soluble on expression in E. coli; label from the status in PepcDB or PDB records

Sequence	soluble on expression in E. coli
MGSDKIHHHHHHMADPQTLDKIIDKTLDTVGKSREQIFEISEQSRNEYVSLEQELQEVRMKVAEIIDQSDRAEVHARFARNRLAEVSKQFHRYSNEEIRKVYEQANELQVKLALLQQEEQQLRDRRDAIERRLLNLKDTIERAEELVGQMTVVYNFLTGDLRQVGEALEDAREKQAFGLQIIQAQEEERRKLSREIHDGPAQMMANVLLRSELVERIYHDKGIDEALKEIRDLRKMVKSSLAEVRRIIYDLRPMALDDLGLIPTLKKYVKTFEEHTGIFVDFKHIGKGERFPEHVEIALFRLVQEALQNTRKHAKASHVHVKIEEQKTKFTVVIKDNGKGFDQTEKKEGSFGLVGMKERVNMLKGQLVIRTKPNDGTTIIISIPITTEE	not soluble
MHHHHHHVMIMKAFISENVRGIYAFDENGNLIEKRYFTDKPEKVLDQLLKGEITKDLEELLNSLKEKGYDEFVFEHPELSRRAKELGFSATTEFPNIAGERLRSNPEEFLGENWFEEYYKVGVALTRMRIQEQSGARDKMVIQAIEALDDVDKVINLLVARLREWYSLHFPELDELLPKHPQYVAFVKTVGHRDNINEEVLRELGLSEEKIKKILEAKEKTMGAWMDQTDIEVVRQLAEEIDRLYQLRKKLEDYIDRAMDDVAPNLKALVGAKLAARLISLAGGLRELAMMPSSTIQVLGAEKALFRHLRTGAKPPKHGVIYQYPAINRSPWWQRGKIARALAGKLAIAARVDYFSGEYIAEELKKELEARIREIK	soluble
MGSDKIHHHHHHMKSNLFMKRKLEIGLSLLIGTSVFGGCNNDLAPIRQSQTFPPNLNAPTVFESFSPDSGGVKTQLIIRGQNFGTDTAYLKVTVNNKRAAIVGVADDVIYAIVPARADTGYVRLFVGKDDNVEEYASQTKFIYQFKRNVTTLMGRQGQSGRDDGPYAECKLQRPWFALADKDGALFFIDEGRGQNKNGALRRAQEGWVETLVQNSSGPFQSPTCLAFNPKQDTLYISNMSYGSDIKTSFNILYVTREGGFMDVKGLCKFEKAETQGLAVHPQTGEIFFCNKSGGYIYRFNGPDYEDYEPLFQINRADKIDTRMVFNPEGTALFVVVCNRHCIYKVPYNALTHTFGEPELFAGGWDESGYVNGSGVTARFDNPRQPAFDQDGNMFVPEYGRHTIRKITPTGEVSLYAGLPGQAGFTDGLPEKARFNKPECVTVYLDNSLYVADRDNHLIRRVTVE	not soluble
MAIRSSVLALCVATLLTGCQNLNTNTLMQSGAQAFQAATLSDAQVKALSDQSCEQMDKEAKIAPADSKYTQRLNKIADALGHDINGTPANYKVYLEKDVNAWAMANGCIRVYSGLMDMMNDNEVEGVLGHEMGHVALGHTRKAMQVAYAATAARTAIASAGGVAASLSQSQLADLGEKLVNSQFSQSQESQADDYSFDLLKKRGINREGLASSFEKLAKLDASHESSMFDSHPSSEGRAKHIRERITAEKLEHHHHHH	soluble
MGSDKIHHHHHHMSKLFDCITDELQDFIAAQHLFFVGSAPLSPTGHVNLSPKGLGCFRVLSPKQVGYVDLTGSGNETSAHLQENGRITFMFCAFEEPACILRLYGQGNTILPSSPDWDSLYSLFLPMPGTRQIIVADIEKVQTSCGFGVPLYEYQGQRQTLVNWASKKGEEGVREYQQKKNLVSIDGLPTPLSKLS	not soluble
MSLDHHLQGPVVAGMPNLHSHAFQRGMAGLSESRSGEKDSFWSWRKRMYHFLQVLSPEDVEAIASQLYLEMLKAGYTSVGEFHYLHHAVDGKHYANPAEMSERILAASETTGIGLTHLPVLYRFGGFGSREPSFQQGRFIHEPDEFVSLLEKLSPSFEKHPNRRLGMAPHSLRAVSPDLLSKVLPEFQRLCPGSPLHLHISEQTAEVEECLEWSGLRPVQWFFENLEPDSNWCLIHATHLDSQERRKLAESEVTVGLCPTTEANLGDGIFPMKEFMEEGGGFGIGSDSHVSISLCEELRWLEYQQRLLQRQRNCLREGHHHHHH	soluble
MGSSHHHHHHGKTIFVIVPTNEEQVAFLEALAKQDELNFDWQNPPTEPGQPVVILIPSDMVEWFLEMLKAKGIPFTVYVEEGGSENLYFQGGGGGGFVPNWYQHPDPALKYADDMEVYDYYQQYEAAKKAAREASTSSKKTAATSPALPRAKPHVTIA	soluble
MPVELKSFDEFVKVVERAVECRVKRGKDVVKIKARTKRYLYTLKVPPEKEAEVLEQVKAKCKNLVELLEHHHHHHLEHHHHHHLEHHHHHHLEHHHHHHLEHHHHHHLEHHHHHHLEHHHHHH	not soluble
MSLSKHSHYKDKKKFYKKVEQFKEFQERISVHFQNEKLLYQAFTHSSYVNEHRKKPYEDNERLEFLGDAVLELTISRFLFAKYPAMSEGDLTKLRAAIVCEPSLVSLAHELSFGDLVLLGKGEEMTGGRKRPALLADVFEAFIGALYLDQGLEPVESFLKVYVFPKINDGAFSHVMDFKSQLQEYVQRDGKGSLEYKISNEKGPAHNREFEAIVSLKGEPLGVGNGRSKKEAEQHAAQEALAKLQKHHTKQEGGSHHHHHH	soluble
MGSDKIHHHHHHMSTLDIAEDNKIKNEEFKIWKKSIPSLYQHISSLKPIFGSGVDESPSTLRSIVFTNDSSCNKSKGVLSVPLLYSQGSEIFEVDCIVPLGLHYKKPESISEPLVQPDYTMESQKVEQTVLIPKWEFKGETIAKMIYVDNSEINVKVIALSTNGSLAWFREGVKSPVYTMMEPSTSLSSASSGNQNKPCVDFAISNDSKTLTVTKEKHLDNENATIKLIDNSGKIGEVLRTIPVPGIKNIQEIKFLNNQIFATCSDDGIIRFWGNEIGKKPLWILNDSLDGKTTCFAASPFVDTLFMTGTSGGALKVWDIRAVIALGDADAELNINQGHNKVNELFKVHHFYSEQVSKIEFSSISPMEVVTIGGLGNVYHWNFEPVFAIYNEIHEDFQGIISDELEAESMAFYHTEGCRREIGENNKVNTVAYHKYIEDLVATVDSDGLLTVYKPFTGKVLDGSREVGAAKS	not soluble
MADNKITFFGKCDGISVEQLIRYSRFNMNVKHFHNQYEIFYIIEGERQFFFDNKSYNAYAGDIAILDTNLVHTTCSISDEDKGYNRVILYIDYEKMCDFDKKYPGLNLVNYFHNNYGIYHLNEDQRIAFLNLYRDLRHELTKKNSGYQSRVEIATIYWLYKLLSLKHDSTQIHAVINSPKE	not soluble
MGKKKSDTASGGAIPEGDNEKGKKIFKQRCEQCHVVNSLQTKTGPTLNGVIGRQSGQVAGFDYSAANKNKGVVWDRQTLFDYLADPKKYIPGTKMVFAGLKKADERADLIKFIEVEAAKKPSA	not soluble
HMSMYAVNAGIAKTTVQILVDHIAHSGWLDEAASAVLLDIVRTPISPELKPVGQDGNISQKTEDLVGPYELHDFFIYHFLHNEYKPSKIYYLAGVAFKGIYTKAEIKKWMMVFFRRFFAQQYKRNCMPDGPKVSCISLSPRGAWRMASDASSALWLDEIAKFETD	not soluble
MTLQQEIIQALGAKPHINPEEEIRRSVDFLKAYLKTYPFLKSLVLGISGGQDSTLAGKLSQMAIAELREETGDNALQFIAVRLPYGVQADEQDCQDAIAFIQPDRVLTVNIKGAVLASEQALREAGIELSDFVRGNEKARERMKAQYSIAGMTHGVVVGTDHAAEAITGFFTKYGDGGTDINPLHRLNKRQGKQLLAALGCPEHLYKKVPTADLEDDRPSLPDEAALGVTYDNIDDYLEGKTLDPAIAKTIEGWYVKTEHKRRLPITVFDDFWKR	soluble
MSDSSHAFSATERAAVYRAIAERRDMRHFSGGSVAPELLARLLEAAHQAPSVGLMQPWRFIRITEPALRRAIHGLVEEERGRTAEALGERSDEFMRLKVEGVLDCAELLVAALMDDRERHVFGRRTLPQMDLASLACAIQNLWLASRAEGLGMGWVSLFDPAALGELLGLPPGSEAVAVLCLGPVAEFYPAPMLALEGWSEPRPLAELVYQNRWGERA	not soluble
MEDIENIEEDEYGFSRNYFLAKELGGASKRSAHKLSDIHIVDEQELRETASTIEMKHSKEISELMSDYKTMYSKWVFELRCGFGLLMYGFGSKKALVEDFASASLTDYSVVVINGYLPSVNLKQVLLALAELLSELLKCKRKSSGSLSKGQETFPSRSMDDILSFLHGPQSGDKDCFICVVVHNIDGPALRDPESQQTLARLSSCSHIRLVASIDHVNAPLLWDKKMVHKQFNWLWHHVPTFAPYNVEGVFFPLVLAQGSTAQTAKTAAIVLQSLTPNGQNVFKILAEYQLSHPDEDGMPTDDLYSASRERFFVSSQVTLNSHLTEFKDHELVKTKRNSDGQECLNIPLTSDAIRQLLLDLNQ	not soluble
SLRDSFHFKTYRKRRICPTMTLVLDLDETLIYCTKKRKYHYQKEVDVLINGKYLPLYVCKRPYIDLFFSSLYPFYEIIIFTTAIKSYADTVLNIIDVDHYIDKKFYREDCYEMNEKLYIKNLTNIKKELSKIILIDDSNISGFQYPDNFFPIKKWQGDLNDNELLHLIPFFLNLRKLKDIRSLCSFRLISQKDVSKLLCTSS	not soluble
MSSTPQFLRWYEQNKPVPYRSVLQEKFEPGQTLIVKGSTIDESQRFTINLHSKTADFSGNDVPLHVSVRFDEGKIVLNSFSNGEWGKEERKSNPIKKGDSFDIRIRAHDDRFQIIVDHKEFKDYEHRLPLSSISHLSIDGDLYLNHVHWGGKYYPVPYESGLANGLPVGKSLLVFGTVEKKAKRFHVNLLRKNGDISFHFNPRFDEKHVIRNSLAANEWGNEEREGKNPFEKGVGFDLVIQNEEYAFQVFVNGERYISFAHRADPHDIAGLQISGDIELSGIQIQ	not soluble
MSRYCSQCGKSRKACICQWIVPLASGVELIILQHTSEAHRPLGTARILNLSLKNCTCLIGEDFSDDAQLNALLTDEAYQHFILYPSEQSQCLSDIACTESERTRKTRLILLDGTWKKAYKMWQLSTNLHTLTTVKLPEDLQGHYTIRKAPSDNSLSTVEAGFYALSLLEPDNDFSPLLNAFDRMIEFQIAQMPPGVFEKNYLNKLEHHHHHH	not soluble
MQMIHKEGWIEVICGSMFSGKSEELIRRVRRATYGRLKVQVFKPAIDNRYSEQEVVSHNGNKVCAIPVERAMSILEQWSEDTDIVAIDEVQFFDEDVIGVVDYLADHGVRVICAGLDQDFRGEPFEPTRTLMAMAEYVTKLQAICPVCGSPASRTQRLIDGKPASYHDPIILVGAAEAYEPRCRHCHQVTNKPSKLPETASSGELEHHHHHH	soluble
MSLTELEFVTEHRRYLHKHPELSLHEYETTKYIAHFLDDLGVPYERPLDTGVIAYLSGNSTHTIAYRADIDALPIYEENNVSYRSEVDHVMHACGHDGHTTALMLFVKRCKNLADKGELPQNIVFIFQPAEETGGGANRLIRAGAFEKYPIEAVFGIHVMPFENEGRVVIRDEEITASATEYRFYLHGLSSHVADKEQGHSCGEALQHVLTQVGQIQQYHLNGLKRNIVHMGHFEAGEAINTVPSNGYLEGTIRTYDVKDLEIVKQQMTKISESVKLLFNVECEVKFEEGYPPTFNDPQLRKHVENGLVNAEFEVIDKPTPYLFGEDFSFYSQIAPSYFVFVGVRDEAKGYVTGLHTSHLNFNESILIRIADYYEQILKSYSEVQSEGHHHHHH	soluble
MSLSYVHTEIQNDALYITLDYPEKKNGLDAELGTSLLEAIRAGNNETSIHSIILQSKHRAYFSSGPRLEDLLICASDQSDVRLREVLHVLNHCVLEIFTSPKVTVALINGYAYGGGFNMMLACDRRIALRRAKFLENFHKMGISPDLGASYFLPRIIGYEQTMNLLLEGKLFTSEEALRLGLIQEICENKQELQERVKNYLKAVSEGYVPAIAATKKLLKGKAAEELKQQLEQETEELVALFKQTEIKKRLEALVEGHHHHHH	soluble
MKSGIYQIKNTLNNKVYVGSAKDFEKAWKRHFKDLEKGCHSSIKLQRSFNKHGNVFECSILEEIPYEKDLIIERENFWIKELNSKINGYNIADATFG	soluble
